The source of these data is US6897294.

For the assay, the target named is flt(1,2,3): flt-1 Ig-like domains 1, 2 and 3 only fused to the Fc of IgG (human) [IgG part: P01857]. Nature of the assay: unlabeled VEGF titrated against 125I-VEGF165 binding to 1 ng immunoreactive flt(1, 2, 3) on anti-Fc plates; 4-parameter fit (FIG. 5).

vascular endothelial growth factor VEGF165, sequence (P15692 other isoform, or with tags, fused parts or gaps limits assumed): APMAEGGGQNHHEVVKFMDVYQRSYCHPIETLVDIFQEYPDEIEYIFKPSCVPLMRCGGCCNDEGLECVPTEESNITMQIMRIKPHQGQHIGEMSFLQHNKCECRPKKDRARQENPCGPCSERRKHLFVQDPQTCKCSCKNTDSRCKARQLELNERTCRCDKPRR

With “vascular endothelial growth factor VEGF165 (from UniProt P15692 27-191) (ligand)”, the concentration for half-maximal inhibition (IC50) was 1.34 ng/mL.

As usually defined, the IC50 is the concentration needed to halve the response being measured. Low values mean greater potency, high ones weaker potency.
